Consider 53 sequences from the supplement of paper PMC11780869.

In the series the test system is Bacillus subtilis. The series is described as follows: cleaved RNA product abundance (RNA/gDNA barcode ratio) relative to median wild-type variant (ratio to wild type); higher = more accumulation of the downstream cleavage product. The gist of the method: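 Truncated aprE or tetM reporter mRNAs with barcoded RNase Y cleavage-site windows, mutagenized from oligos at a 9% error rate, sat in the B. subtilis chromosome. Cells grew in LB at 37°C from OD600 0.0003 to 0.3. Gel-selected cleaved RNA was reverse transcribed and its barcodes sequenced with those from genomic DNA, collapsing by UMI. Cleaved product abundance equals the RNA:gDNA barcode ratio per construct over the median construct with the unmutated site.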

Setting [1] is: experiment (reporter, strain, medium): exp 2b: truncated aprE reporter, strain BJT200, cleavage site: cggR-gapA (positions -7 to +36 mutated).
Setting [2] is: experiment (reporter, strain, medium): exp 4a: truncated aprE reporter, strain BJT201 with 2% xylose (RNase J1 expressed), cleavage site: cggR-gapA (positions -7 to +36 mutated).
Setting [3] is: experiment (reporter, strain, medium): exp 6: tetM reporter, strain 168, cleavage site: cggR-gapA (positions -7 to +36 mutated).
[4] abbreviates: experiment (reporter, strain, medium): exp 8a: truncated aprE reporter, strain BJT201 with 2% xylose (RNase J1 expressed), cleavage site: glnRA (positions -5 to +31 mutated).

On to “ACAGACGAAGGAGCCGCAAAGACGTTATTAAGGGATGACTAATCCCTCAATATAAATATCTCTCACTTATTTAAA”, for which the “cleaved RNA product abundance” value under setting [1] amounted to 0.561.

As to “ACAGACGAAGGAGCCGCAAAGAAGTTATTAAGGGATGAATAATCCCCTAATATAAATATCTCTCACTTATTTAAA”, under setting [2], the “cleaved RNA product abundance” value stood at 1.25.

In the case of “ACAGACGAAGGAGCCGCAAAGAACTTATTAAGGGATGAATAATCCCTCAATATATATATCTCTCACTTATTTAAA”, the “cleaved RNA product abundance” value under setting [2] was 0.454.

With “ACAGACGAAGGAGCCGCAAAGAAGTTATTATGGGATGAATAATCCCTCAATATCAATATCTCTCACTTATTTAAA”, the “cleaved RNA product abundance” value under setting [2] came to 0.0948.

Take “ACAGACGAAGGAGCCGCAAAGAACTTATTAAGGGATGAATCATCCCTCAATATAAATATCTCTCACTTATTTAAA”: the “cleaved RNA product abundance” value under setting [2] worked out at 0.36.

Take “ACAGACGAAGGAGCCGCAAAGAAGTTATTAAGTGATGAATAATCCGTCAATATAAATATCTCTCACTTATTTAAA”: the “cleaved RNA product abundance” value runs as follows: under setting [1], 0.103; under setting [2], 0.0842.

As for “ACAGACGAAGGAGCCGCAAAGAAGTTATAAAGGGATGAATAATCCCTTAATATAAATATCTCTCACTTATTTAAA”, the “cleaved RNA product abundance” value worked out at 0.56 under setting [1] and 0.593 under setting [2].

With “ACAGACGAAGGAGCCGCAAAGAAGTAATTAAGGGATGTATAATCCCTCAATATAAATATCTCTCACTTATTTAAA”, the “cleaved RNA product abundance” value under setting [2] worked out at 0.346.

As for “ACAGACGAAGGAGCCGCAAAGAAGTTATTAAGGGATGAATAATCCCTCAATTTAAATATCTCTCACTTATTTAAA”, the “cleaved RNA product abundance” value was determined as 0.182 under setting [1], 0.218 under setting [2] and 0.195 under setting [3].

On to “CGACATGTCCCGCTTCTTTCATTATTCCGTTAGCAACTGTGTTGCTATATACATTTACCTTTTAAGAGGAGGAAT”, for which the “cleaved RNA product abundance” value under setting [4] is 0.7.

“ACAGACGAAGGAGCCGCAAATAAGTTATAAAAGGATGAATAATCCCTCAATATAAATATCTCTCACTTATTTAAA”: the “cleaved RNA product abundance” value under setting [2] was determined as 0.211.

As to “ACAGACGAAGGAGCCGCAAAGAAGCTATTAAGGGATGAATAATCCCTCAATTTAAATATCTCTCACTTATTTAAA”, under setting [2], the “cleaved RNA product abundance” value turned out to be 0.0606.

In the case of “ACAGACGAAGGAGCCGCAAAAAAGATATTAAGGGATGAATAATCCCTCAATATAAATATCTCTCACTTATTTAAA”, the “cleaved RNA product abundance” value under setting [2] was 0.913 and the “cleaved RNA product abundance” value under setting [3] is 0.421.

Take “CGACATGTCCCGCTTCTTTCATTAATCCGTTAGCAACTGTTTTGCTATATACATTTACCATTTAAGAGGAGGAAT”: the “cleaved RNA product abundance” value under setting [4] came out at 1.03.

As for “ACAGACGAAGGAGCCGCAATGAAGTTATTAAGTGATGAATAATCCGTCAATATAAATATCTCTCACTTATTTAAA”, the “cleaved RNA product abundance” value under setting [2] worked out at 0.0953.

On to “ACAGACGAAGGAGCCGCAAAGAAGTTAATAAGGGATGAATAATCCCTCAATATAAATATCTCTCACTTATTTAAA”, for which the “cleaved RNA product abundance” value is, setting by setting: under setting [1], 0.264; under setting [2], 0.349; under setting [3], 0.555.

As for “CGACATGTCCCGCTTCTTTCATTAATCTGTTAGCAACTGTTTAGCTATATACATTTACCTTTTAAGAGGAGGAAT”, under setting [4], the “cleaved RNA product abundance” value was 0.727.

On to “ACAGACGAAGGAGCCGCAAAGAAGTTATTAAGGGATGCATAATACCTCAATATAAATATCTCTCACTTATTTAAA”, for which the “cleaved RNA product abundance” value was determined as 0.129 under setting [1] and 0.141 under setting [2].

For the sequence “ACAGACGAAGGAGCCGCAAAGAAGTTATAAAGGGATGAATGATCCCTCAATATAAATATCTCTCACTTATTTAAA”, the “cleaved RNA product abundance” value by setting is: under setting [1], 0.193; under setting [2], 0.273.

Consider “ACAGACGAAGGAGCCGCAAAGAAGTTATCAAGCGATGAATAATCCCTCAATATAAATATCTCTCACTTATTTAAA”, for which the “cleaved RNA product abundance” value under setting [2] came out at 0.0711.

For the sequence “ACAGACGAAGGAGCCGCAAATAAGTCATTAAGGGATGAATAATCCCTCAATATAAATATCTCTCACTTATTTAAA”, under setting [2], the “cleaved RNA product abundance” value stood at 0.28.

In the case of “ACAGACGAAGGAGCCGCAAAGAAGTTATTAAGTGATGAATAATCCCTCAATATAAAAATCTCTCACTTATTTAAA”, the “cleaved RNA product abundance” value under setting [2] came out at 0.124.

Take “CGACATGTCCCGCTTCTTTCATTAATCTGTTAGCAACTGTTTTGCTATATACATTTACCATTTAAGAGGAGGAAT”: under setting [4], the “cleaved RNA product abundance” value was 2.04.

On to “CGACATGTCCCGCTTCTTTCATTAATCCGTTAGCAACTGTTTTTCTATATACATATACCTTTTAAGAGGAGGAAT”, for which, under setting [4], the “cleaved RNA product abundance” value stood at 0.656.

Regarding “ACAGACGAAGGAGCCGCAAAGAAGTTATTTAGCGATGAATAATCCCTCAATATAAATATCTCTCACTTATTTAAA”, the “cleaved RNA product abundance” value is, setting by setting: under setting [1], 0.117; under setting [2], 0.0809.

Regarding “CGACATGTCCCGCTTCTTTCATTACTCCGTTAGCAACTTTTTTGCTATATACATTTACCTTTTAAGAGGAGGAAT”, the “cleaved RNA product abundance” value under setting [4] is 2.09.

With “ACAGACGAAGGAGCCGCAAACAAGTTATTAAGGGATGAATAATCCCTCAATATAAATTTCTCTCACTTATTTAAA”, the “cleaved RNA product abundance” value under setting [2] worked out at 0.298.

Turning to “ACAGACGAAGGAGCCGCAAAGAAGTTATTAACGGATGAATAATCCCCCAATATAAATATCTCTCACTTATTTAAA”, the “cleaved RNA product abundance” value under setting [2] is 0.173.

Consider “ACAGACGAAGGAGCCGCAACGAAGTTATTAACGGATGAATAATCCCTCAATATAAATATCTCTCACTTATTTAAA”, for which the “cleaved RNA product abundance” value under setting [2] is 0.155.

As to “ACAGACGAAGGAGCCGCAAAGAAGTTATTAAGAGATGAATAATCCTTCAATATAAATATCTCTCACTTATTTAAA”, the “cleaved RNA product abundance” value is 0.105 under setting [1] and 0.211 under setting [2].

For “ACAGACGAAGGAGCCGCAAATAAGTTATTAAGGGATGAATACTCCCTCAATATAAATATCTCTCACTTATTTAAA”, the “cleaved RNA product abundance” value under setting [1] was 0.682 and the “cleaved RNA product abundance” value under setting [2] was found to be 0.538.

Take “CGACATGTCCCGCTTCTTTCATTAATCCGTTATCAACTGTTTTGCAATATACATTTACCTTTTAAGAGGAGGAAT”: the “cleaved RNA product abundance” value under setting [4] is 0.266.

For the sequence “ACAGACGAAGGAGCCGCAAAGAAGTTATTAAGGGTCGAATAATCCCTCAATATAAATATCTCTCACTTATTTAAA”, the “cleaved RNA product abundance” value under setting [2] is 0.211.

As to “CGACATGTCCCGCTTCTTTCATTAATTCGTTAGCAACTGTTTTGCTATATACATTTACCATTTAAGAGGAGGAAT”, under setting [4], the “cleaved RNA product abundance” value was determined as 1.22.

For “ACAGACGAAGGAGCCGCAAAGAAGTAATTAATGGATGAATAATCCCTCAATATAAATATCTCTCACTTATTTAAA”, the “cleaved RNA product abundance” value is 0.105 under setting [1], 0.121 under setting [2] and 0.0999 under setting [3].

Take “CGACATGTCCCGCTTCTTTCATTAATCCGTTAGCAACTGTCTTGATATATACATTTACCTTTTAAGAGGAGGAAT”: under setting [4], the “cleaved RNA product abundance” value was 0.547.

For the sequence “CGACATGTCCCGCTTCTTTCATTAATCCATTAGCAACTGTTTTGCTATATACATATACCTTTTAAGAGGAGGAAT”, the “cleaved RNA product abundance” value under setting [4] is 0.929.

On to “ACAGACGAAGGAGCCGCAAAGAAGTTATTAAGGGATGAAGAATACCTCAATATAAATATCTCTCACTTATTTAAA”, for which, under setting [2], the “cleaved RNA product abundance” value turned out to be 0.106.

For “ACAGACGAAGGAGCCGCAAAGAAGTTATTAAGGGATGAATAATCCCTCCATATAAATTTCTCTCACTTATTTAAA”, the “cleaved RNA product abundance” value under setting [2] amounted to 0.23.

For the sequence “ACAGACGAAGGAGCCGCAAAGAAGTTATTAAGGGATGAATAATCTCTAAATATAAATATCTCTCACTTATTTAAA”, the “cleaved RNA product abundance” value under setting [1] stood at 0.627 and the “cleaved RNA product abundance” value under setting [2] amounted to 0.558.

Turning to “ACAGACGAAGGAGCCGCAAAGAAGCTATTAAGAGATGAATAATCCCTCAATATAAATATCTCTCACTTATTTAAA”, the “cleaved RNA product abundance” value stood at 0.0974 under setting [1] and 0.123 under setting [2].

As for “CGACATGTCCCGCTTCTTTCATTACTCCGTTAGCAACTGTTTTGCTATATACATTTATCTTTTAAGAGGAGGAAT”, under setting [4], the “cleaved RNA product abundance” value amounted to 1.8.

As to “CGACATGTCCCGCTTCTTTCATTAATCCGTTAGAAACTGTTTTGCTATATACAGTTACCTTTTAAGAGGAGGAAT”, the “cleaved RNA product abundance” value under setting [4] came out at 0.361.

As for “ACAGACGAAGGAGCCGCAAAGAAGTTACTAAGGGATGCATAATCCCTCAATATAAATATCTCTCACTTATTTAAA”, under setting [2], the “cleaved RNA product abundance” value was found to be 0.235.

With “ACAGACGAAGGAGCCGCAAAGTAGTTATTAAGTGATGAATAATCCCTCAATATAAATATCTCTCACTTATTTAAA”, the “cleaved RNA product abundance” value reads like this: under setting [1], 0.106; under setting [2], 0.116.

In the case of “ACAGACGAAGGAGCCGCAAAGAAGTTATTAAGAGATAAAAAATCCCTCAATATAAATATCTCTCACTTATTTAAA”, the “cleaved RNA product abundance” value under setting [2] was determined as 0.139.

As to “CGACATGTCCCGCTTCTTTCATTAATCCGTTAACAACTGTTTTACTATATACATTTACCTTTTAAGAGGAGGAAT”, the “cleaved RNA product abundance” value under setting [4] was 0.222.

As to “CGACATGTCCCGCTTCTTTCATTAATCCGTTAGCAACCGTTTTTCTATATACATTTACCTTTTAAGAGGAGGAAT”, under setting [4], the “cleaved RNA product abundance” value stood at 0.384.

On to “ACAGACGAAGGAGCCGCAAAGAAGTTATTAAGGGATGAATAATACCTCAATATTAATATCTCTCACTTATTTAAA”, for which the “cleaved RNA product abundance” value worked out at 0.0803 under setting [1], 0.0425 under setting [2] and 0.0694 under setting [3].

As for “CGACATGTCCCGCTTCTTTCATTAATCCGTTAACAACTGTTTGGCTATATACATTTACCTTTTAAGAGGAGGAAT”, the “cleaved RNA product abundance” value under setting [4] was 0.159.

Consider “CGACATGTCCCGCTTCTTTCATTAATCCGTTAGCAACTGTTTTGCAATATACATTTCCCTTTTAAGAGGAGGAAT”, for which the “cleaved RNA product abundance” value under setting [4] came to 0.589.

Regarding “ACAGACGAAGGAGCCGCAAAGAAGTTATTATGGGATGAATAATCCTTCAATATAAATATCTCTCACTTATTTAAA”, the “cleaved RNA product abundance” value was 0.315 under setting [1] and 0.382 under setting [2].

Consider “ACAGACGAAGGAGCCGCAAAGAAGTTATTAAGGGATGATTAATCCATCAATATAAATATCTCTCACTTATTTAAA”, for which, under setting [1], the “cleaved RNA product abundance” value was determined as 0.124.
